Measured values from US9068161B2, “Laccases and uses thereof” (DEINOVE, priority 2010, dated 2015).

B1: Deinococcus cellulolysiticus DRH46 laccase 2, recombinant, SEQ ID NO: 4 (Deinococcus cellulosilyticus NBRC 106333 = KACC 11606) (protein)
chain: PKGSPMTEYHNPAEVQASRTEKGSTFTLTAAETSITLDGKEVKAQLFNQSFPGPQLTLQAGEQVNLTLKNDLREPTNLHLHGLTLPAGVDDPFLQVQPGESHTYSFTVPQGLHGTFWYHTHTHGHLGTQLFQGLAGPLIVEDPTFDSHIQGMETHTVVLKDLPVEVQDSDGTRMNGREGKLLVNGLSSPTLKTESSWVRLRLINASNARYDLLKLSGSAFLHVIAKDGIDLPKTEQVKELLLTPGERADVLISVQDQQDLRLENHPYDRGVHEMDGGHQGHTPSTPEVLLTLQGKKGSVSASVPQPALQPRPFLKVTGNEAIRKVVLQETMQPVKFFINGRTFDMNRVDFHVSEGTTEIWEVENQTEMDHPFHLHTFPVQVLSVNGQEVPPVWKDTVNVPAKAKVQVAVKFEGFTGKTVFHCHIAEHEEEGMMGVLQVHPAGEALPASLTPTLPPAAASEDMPDMPGMDHSGH
B2: Laccase 1: enzyme having laccase activity from Deinococcus cellulolysiticus DRH46, amino acid sequence SEQ ID NO: 2, recombinant with 6(His) tag (protein)
chain: MKQRLTAAALLTALLSSCAMKNPDVISYQDPEPLAGQRSGKAAEFTLTAQKSRLDLAGQSVEALTYNGTFPGPLLTLKAGEDVRITLKNNLSEPTNLHLHGLPLSPEVDDPFVVVPPGGSHTYAFQVPEEVHGTFWYHTHTHGASAAQLFSGLAGPLLVEAAKPNNPIEHMETHTVVFKDLPGAQHADDGVLMNGRENTLLVNGLVSPTLKTENSWVQLRLINASNARYLRLKLDDGLLQVVARDGIDLPGMERAQELLLTPGERADVLVSLQDHQNLKLQNLPYDRGVHSMGSHSGHTESKTAVVLTLQGPQKPGASVPRVETAPPPFLQLQGNEKVRKVILQETMQPVKFFINGRSFDMNRVDFHVSEGSTEIWELQNTTEMDHPFHLHTFPMQLIRIGGKEVPPVWKDTVNIPKNSTVTVAVHFKGFTGKTVFHCHIAEHEEAGMMGLLQVHPSGTALPASLEPIEPTVGPGEDAQHGH
modifications: 6xHis tag; Laccase 1 derived from Deinococcus cellulolyticus DRH46
B3: Laccase 2: enzyme having laccase activity from Deinococcus cellulolysiticus DRH46, amino acid sequence SEQ ID NO: 4, recombinant with 6(His) tag (protein)
chain: MIRTLTSLTLLTVALTACAPKGSPMTEYHNPAEVQASRTEKGSTFTLTAAETSITLDGKEVKAQLFNQSFPGPQLTLQAGEQVNLTLKNDLREPTNLHLHGLTLPAGVDDPFLQVQPGESHTYSFTVPQGLHGTFWYHTHTHGHLGTQLFQGLAGPLIVEDPTFDSHIQGMETHTVVLKDLPVEVQDSDGTRMNGREGKLLVNGLSSPTLKTESSWVRLRLINASNARYDLLKLSGSAFLHVIAKDGIDLPKTEQVKELLLTPGERADVLISVQDQQDLRLENHPYDRGVHEMDGGHQGHTPSTPEVLLTLQGKKGSVSASVPQPALQPRPFLKVTGNEAIRKVVLQETMQPVKFFINGRTFDMNRVDFHVSEGTTEIWEVENQTEMDHPFHLHTFPVQVLSVNGQEVPPVWKDTVNVPAKAKVQVAVKFEGFTGKTVFHCHIAEHEEEGMMGVLQVHPAGEALPASLTPTLPPAAASEDMPDMPGMDHSGH
modifications: 6xHis tag; Laccase 2 derived from Deinococcus cellulolyticus DRH46
B4: Deinococcus cellulolysiticus DRH46 laccase 1, recombinant, SEQ ID NO: 2 (Deinococcus cellulosilyticus NBRC 106333 = KACC 11606) (protein)
chain: NPDVISYQDPEPLAGQRSGKAAEFTLTAQKSRLDLAGQSVEALTYNGTFPGPLLTLKAGEDVRITLKNNLSEPTNLHLHGLPLSPEVDDPFVVVPPGGSHTYAFQVPEEVHGTFWYHTHTHGASAAQLFSGLAGPLLVEAAKPNNPIEHMETHTVVFKDLPGAQHADDGVLMNGRENTLLVNGLVSPTLKTENSWVQLRLINASNARYLRLKLDDGLLQVVARDGIDLPGMERAQELLLTPGERADVLVSLQDHQNLKLQNLPYDRGVHSMGSHSGHTESKTAVVLTLQGPQKPGASVPRVETAPPPFLQLQGNEKVRKVILQETMQPVKFFINGRSFDMNRVDFHVSEGSTEIWELQNTTEMDHPFHLHTFPMQLIRIGGKEVPPVWKDTVNIPKNSTVTVAVHFKGFTGKTVFHCHIAEHEEAGMMGLLQVHPSGTALPASLEPIEPTVGPGEDAQHGH

Assays:
[1] = substrate: COc1cccc(OC)c1O; test: Laccase assay, Laccase 2 activity (oxidation of substrates, spectrophotometric); assay type: biochemical, Deinococcus cellulolysiticus DRH46; details: other: 60° C., pH 8, 0.1M citrate-phosphate buffer, 0.05 mg/mL purified enzyme
Excerpt: (§1) Two enzymes having laccase activity have been characterized from Deinococcus cellulolysiticus DRH46 (namely laccase 1, laccase 2), and one enzyme having laccase activity has been characterized from Deinococcus maricopensis DSM 21211 (i.e., laccase 3). The amino acid sequences of laccase 1, laccase 2 and laccase 3 are represented in SEQ ID NO: 2, 4 and 6, respectively.
(§2) As mentioned in Example 1, nucleic acids encoding the laccase 1, 2 and 3 enzymes comprising the amino acid sequence of SEQ ID NO: 2, 4 or 6 respectively, were cloned into the pETDEST42 vector according to conventional recombinant techniques. In each vector, the cloned nucleic acid was cloned in frame with a 6(His) tag (SEQ ID NO: 7), to facilitate purification of the recombinant protein.
(§3) E. coli cells harboring the recombinant nucleic acid are prepared and grown in 4 liters of LB medium. Induction of the enzyme production is performed overnight in the presence of 1 mM IPTG and 2 mM of […]. […]
(§4) The assay is performed at T=45° C. and 60° C., pH=8. The absorbance was measured at A470 nm and the measure was carried out using Continuous Spectrophotometric Rate Determination. […]
(§5) Reagent A (185 μl) was mixed with Reagent B (10 μl). […] The absorbance at 470 nm was monitored until constant, using a suitably thermoregulated spectrophotometer. Then Reagent C (5 μl) was added and the increase in A470 nm was recorded for 30 minutes. […]

[2] = substrate: COc1ccccc1O; test: as above; assay type: biochemical, Deinococcus cellulolysiticus DRH46; details: other: 60° C., pH 8, 0.1M citrate-phosphate buffer, 0.05 mg/mL purified enzyme
Excerpt: as §1, §2, §3, §4, §5

[3] = Temperature and pH optimum of laccase activity; assay type: biochemical; details: 2,6 DMP as substrate
Method: (§6) Standard assays for laccase activity were performed at the temperature range from 30° C. to 90° C. by measurement of enzymatic oxidation of substrates at appropriate wavelength. The reaction was performed in presence of a substrate concentration range, 0.05 mg/mL of purified enzyme and 1 mM prepared in 0.1M citrate-phosphate buffer pH8.
In another series of experiments, the laccase activity according to the invention, was also tested in different conditions of temperature and pH using various substrates.

[4] = Laccase assay, overall conclusion on recombinant enzyme; assay type: biochemical; details: in the tested conditions
Method: as §6
Standard assays were performed using the following substrates: 2,6 DMP, 4-methyl DMP, synapic acid, syringic acid, guaiacol, ABTS, paraphenylenediamine and ferulic acid.
Reagent A (185 μl) was mixed with Reagent B (10 μl). The mixture was equilibrated to 45° C. or 60° C. The absorbance at 470 nm was monitored until constant, using a suitably thermoregulated spectrophotometer. Then Reagent C (5 μl) was added and the increase in A470 nm was recorded for 30 minutes. The ΔA470 nm/minute was obtained using the maximum linear rate for the Test, Control and Blank, Blank being mixture without enzyme and Control being mixture with laccase from Trametes versicolor (T. versicolor, commercial enzyme) replacing Laccase enzyme solution (Reagent C).
Other substrates, different from 2,6 DMP such as 4-methyl DMP, synapic acid, syringic acid, guaiacol, ABTS, paraphenylenediamine and ferulic acid have also been tested at optimal concentration for each substrate (as shown in Tables 1A and 1B).

[5] = substrate: COc1cccc(OC)c1O; test: Laccase assay, Laccase 1 activity (oxidation of substrates, spectrophotometric); assay type: biochemical, Deinococcus cellulolysiticus DRH46; details: other: 60° C., pH 8, 0.1M citrate-phosphate buffer, 0.05 mg/mL purified enzyme
Excerpt: as §1, §2, §3, §4, §5

[6] = substrate: COc1ccccc1O; test: as above; assay type: biochemical, Deinococcus cellulolysiticus DRH46; details: other: 60° C., pH 8, 0.1M citrate-phosphate buffer, 0.05 mg/mL purified enzyme
Excerpt: as §1, §2, §3, §4, §5

Molecule	Km [1] [µM]	Km [2] [µM]	Optimal pH [3]	Optimal temperature [3] [°C]	Laccase activity of the recombinant enzyme [4]	Km [5] [µM]	Km [6] [µM]
B1	992 ± 141	5074 ± 343					
B2			8	90	fully active		
B3			8	70	fully active		
B4						798 ± 35	3046 ± 183
